A short description of the series: label from the status in PepcDB records.

With “MFKIQEVRELIKLIDSSNIDEFEYKKDGTTIKMKKRGNEVVAVQAPVAKQAVQPVAPVEVETTVAAAQVEVPKQEEKKAVQNENLHKITSPMVGTFYSSSSSSPDTPPYVSVGDRVSKDSIVCIVEAMKLFNEIDADVDGEIVEILVNNGQLVEYGQPLFLVKA”, the protein production result is given as “failed”. Under “MFKRIAQTAGFTGLLAALLLTLLQSFWVVPLIQQAETYEKAPAEHVHEHADGAVAEHSHAHDEAAWEPENGWQRVLSTTGGNLVVAVGFALMLAGLYTLRAPGRTAQGAWWGLAGFAVFVLAPTLGLPPELPGTAAAELSQRQLWWIGTAASTAAGLALLVFGQNWLLKVLGAAILVVPHVIGAPQPLVHESLAPEALESQFRVASLLTNALFWVALGLISAWLFRRSNVHTDNAHSNHA” stands “failed”. As to “MFKRIGLISIALSLNTISFTSEACSALVFNKNKPATVAVNLDWKYREGAFVIHPRNAMMVSSVDYHSMHPLIWKSQYGSVIFHGGNRFKAGPSADGMNEKGLTASILMLDSSIYPSNSELPALKTTEWVQYILDNFQTVQEVIDDSSNYQLVADTYRGITMNVHLMVSDAEGKSAVFEYLDGKLVIHTQDNLTTPVLTNTDYKLSLALLEEYQDHGGSKALPGGYDSKSRFVRAAHYLKKLPSFIAKEEHIAYAFNGLNVVTQAPGTSSPTQLSMVFDIPTKTIYFRSINEAALRVIPMDSIDFDYLYQPIALNVYQHLSGDVTDKFQPMIG”, the protein production entry is “failed”. On to “MFKRLKDSALLFWSLEILIVATLIWVCTNIGFLFQPIGTFLSVVFMPILISGFLFYMLNPLVKLLTKVHYKKFRISRTGAVAIVFVLLFGLLVWGAVSLLPRLVSQVTQLIYNLPSIATEMQKAATKLINNSSVLKRIDISSYTKQFNGEISKYSQNFLSSLSSSVVTVISTITSVTIMAITIPVVLFYMLKDSEKFIPAISRFLPKKQRPEVIGLLQKMGDTISSYISGQVIECLFVGTFTAIGYMLISQPYGLLLGVIAGLTNIIPYVGPYIGIAPSLIVAFTKSPMQVVYVIIVVVIVQQVDGNLIYPNIIGRTLKIHPLTIIILLLAAGNIAGILGMILAIPFYAVVRTVVIYLYNIVELRNEEHLRKQTTVYQPQPAKATKADLTTTTKSKK”, for which the protein production result is given as “failed”. Under “MFKTVIIMLMAVSAGTIGDILLAKGMKELGDLSAMNLRGILNVAGQALTSPKLIFGTAMLAIFFFLWLAVLSWEDLSVALPMQALNYVLVAFLSQWFLGETVSPLRWTGTIMVCVGVMLITKSGTP” stands “failed”; under “MFLDYFALGLLIFVALVIFYGIIVIHDIPYEIAKEREHPHQDAIHYAGWVSLFTLHALWPFLWIWATLWRKERGWGFQKLEAEQHDIHHRVDVLIDEVKQLRTELETLKTSSLSVPKSTPAASTSEEKQ”, “failed”.

Turning to “MFLRGNPDKTEPAFDARPLKTKEIARFGEGTPLPWLDRHALACVDASGDLRDVLKSTALAITLFCACTGPAMAYAPDETPIVIGRSTLLESKVLGQLRRINVHTPADYATSGKTYPVLFLLDGGEREDFPHIAGLAQLGELSWTYREMIVVGIEGIDRRHDLTHPSTVAQEQADFPTLGGSAAYRRFLSEELKPWVAARYRTNGESAIMGESLAGLFVIETLLKQPTLFDAYIAASPSLWWSDQALARGAPADIARWPALGSRKLYLTIGDEGSTMQEGVDKVMAAIGAAKPAGLTLVYDPMPHEQHSTIYHPAALKAFRTVWPGPRPD”, the protein production entry is on record as “failed”. Regarding “MFLRIDRLQIELPMPKEQDPNAAAAVQALLGGRFGEMSTLMNYMYQSFNFRGKKALKPYYDLIANIATEELGHIELVAATINSLLAKNPGKDLEEGVDPESAPLGFAKDVRNAAHFIAGGANSLVMGAMGEHWNGEYVFTSGNLILDLLHNFFLEVAARTHKLRVYEMTDNPVAREMIGYLLVRGGVHAAAYGKALESLTGVEMTKMLPIPKIDNSKIPEAKKYMDLGFHRNLYRFSPEDYRDLGLIWKGASPEDGTEVVVVDGPPTGGPVFDAGHDAAEFAPEFHPGELYEIAKKLYEKAK”, the protein production result is on record as “not failed”. As to “MFLSVVTVAFRNYEGVVKTWRSLRNLARDPGLSFEWIVVDGGSEDGTREFLQKRHGEFNLRFISEKDRGIYDAMNKGIALAQGRYTLFLNSGDAFHDDAALFVRQLARQKGEAMYIGDALLDFGGGHKIRRKAKPGYYIYHSLPASHQAIFFPTAALKKYPYDLQYHVSSDYALAARLYKAGYPFRRINGLVSEFSMGGVSTSNNLELCQDAKNVQRKILRVPGFWAQLSYLLRLKTTGKTKARYNKVLEHHHHHH”, the protein production entry is “failed”. In the case of “MFLVTGATGDIGRRVIRLLREHNHSVRGFARLTSRYGELEHRGANIFIGDLRREQDIEKACQGVQYIISAHGSDNDALTLDYRANIALIDQAKANGVQHFVFISVLGAERGYEDAPVFKAKRAVENYLAASGLNYTILRPAGLASNLLPLAERFRETGLYLLIGDPKNRTSIVSTDDLARIVVDSVTVPEARNQIFSVGGPEILLREDIPQIFSHIFKKEPIVVNSPLLVIDGLRGVLGLINPEAQQALGTFRTLLSNEFFCRKDEIAKLEQTFNFPLETLESFLRRYLAVLEHHHHHH”, the protein production entry is reported as “failed”. Under “MFMYTEFRSQLLAGAGTSAAGQSARMAVLAGDGATGVQVSCVVPGLNEAANLRVLVPALRACLEQWCASWEIIVVDDGSTDDTAELMAQWSAVEGIRYVQLSRNFGKEAALTAGLEAADGDAVICLDADMQHPPELIGDMLAAWRNGADMVYAVRRQRDDEPWFKRVGARAFYRLLSTARGVEVPPHAGDFRLMDRRVVEALVALPERTRFMKGLYAWVGFKSQAVPYTPQARRHGASHFSAWKLFRLACDGLTAFTTWPLRLVSLIGVLFALLSLSYGGYLVADYLISGNAVSGWTTIVTALLFFAGINLISLGVVGEYVARIFDEVKGRPLFIARQRRGRAKRAAKARSQ” stands “failed”; under “MFNKLVFKNLKLKKLSTSLVVVASLLVAQAPFANYAEAAGAEKVEKKKKRPTQLVGPRVGKKVQKAFEAYSADDIKGALVILLDIEASKPYDKAYVSRMVAVMYATLGDNDQKTIEYLKKALEPDILNEVDQSESLKLLGDMQMQTKDYKGALKSFYAWMDFSGKDDGPTYVKIANAYYSLKQLDKVIEPADKAIAAFGDKPNQNPYILKITSYYERKMYKEAVKVLETVIQVFPENKQWWTQLPMFYLLIEDYDKAVQTLDLAYKLGHLDKESQIKTLASLYSQTEAPYKAAQLLEKYIASGLVKRDDKNISTLANAWHSAQHIDKAASYYGELAKMTSDAKHYRKQGMLLKQDEQFSKAIVALNKAIELGVSNQGRIHMSIAESYFYLEKYKKAYAAIQKAMKDPSARKSAKGWKSFIVDTARRKNVTI”, “failed”.

On to “MFNLYPPHRSLEGAAILGDNCSRIFNVSDTVVNTLHIVMQSHANPLGILHGGNMIRWLVDAGTLAASKVVVGYPLLAGIDFIYLGKPVGVGETIAVFAWSPYAGRSSVEVGLAAYSLGRPGGQGLERVSAAHMTFVNVKPHEGVLRPHPHGSCIEAVDREEERLLEASMKMREARVERLRGRELLRQTVYSLRESGTEPFEVESYRIVNPIDSVAYDVMHAGAMLYIVDELGAVAALRSSAGIVVTGFVGPADFVAPMRVGEVLRMWARTSYVGRSSVEVLIRSASGFMGGGEARLTSEAYLTYISLDSSGRPLEINAPRGWEPEEQALRRAEWRRRLIRSIDSGETALEPPRRFLEMLMRGRVG”, for which the protein production entry is listed as “failed”.

Consider “MFPQADEPERDTLPGQEEDPLPTGQEQPSITPIAGTEAQYIDIAEWYDSDSILYITDEGENSLVYIYNLLTGEKKSLFSSDDAVIKVTANSTHSQFAIQTVTQAGDAPVSIIDSQGELLMKLEDFGEDFSIFWSPYEEDKLIAVAYLPDWEQDLYLIDTSDKQVEMLDLDQSFVQWLDERTIVYLDWNGDSEGYYAPLYTFDLETEEVVLLHEEAIATLGFGDHVTLIIERPEQGAEVTTYQFWNGSEQLAEWSVPILRTYSEQWWIPFYDFDLNKRLFYAYKPNRTGDYFEYDGGFSFIAFDVDHGEETVLFESDEHVPFRLSPTGQRALFGPRLETVMDLPTGESNSLIELEHHHHHH”, for which the protein production result was “failed”. As to “MFPYFESVATASTEFHAIEPDPHMRRQAAEQANTQATPIHIESSPAEALPYYEDTFDVVITSMVFCTIPDIESAMSEITRVLKPGGELRFFEHVIDDGWRARLQSALAPLWKRLAGGCHLTRQTGTRLVADQSFDVVEIERLNLGITPIRPFVRGRLRKRSVSSTRLEHHHHHH”, the protein production entry is reported as “failed”.
